Source: patent US20230235004A1 (published 2023)

What was measured:
[1] = molecular target: T1, recombinant mouse MAdCAM-1 (mouse, UniProt Q61826 22-364, limits assumed); experiment: Octet
T1 construct: also called mMAdCAM-1
T1 sequence (looked up): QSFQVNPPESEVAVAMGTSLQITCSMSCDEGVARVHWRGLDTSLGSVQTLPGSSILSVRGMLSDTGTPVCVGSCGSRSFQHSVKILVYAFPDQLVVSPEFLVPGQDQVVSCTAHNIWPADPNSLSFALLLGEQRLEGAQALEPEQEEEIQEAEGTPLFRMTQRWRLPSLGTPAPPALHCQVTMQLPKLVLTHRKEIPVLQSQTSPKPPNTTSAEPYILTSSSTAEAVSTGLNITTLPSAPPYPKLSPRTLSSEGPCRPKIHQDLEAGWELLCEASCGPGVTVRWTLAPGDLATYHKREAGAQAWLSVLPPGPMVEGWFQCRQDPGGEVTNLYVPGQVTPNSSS

[2] = molecular target: T2, human MAdCAM expressed on cells (human, UniProt Q13477 19-382); experiment: cell binding
T2 construct: whole, on cells
T2 sequence (looked up): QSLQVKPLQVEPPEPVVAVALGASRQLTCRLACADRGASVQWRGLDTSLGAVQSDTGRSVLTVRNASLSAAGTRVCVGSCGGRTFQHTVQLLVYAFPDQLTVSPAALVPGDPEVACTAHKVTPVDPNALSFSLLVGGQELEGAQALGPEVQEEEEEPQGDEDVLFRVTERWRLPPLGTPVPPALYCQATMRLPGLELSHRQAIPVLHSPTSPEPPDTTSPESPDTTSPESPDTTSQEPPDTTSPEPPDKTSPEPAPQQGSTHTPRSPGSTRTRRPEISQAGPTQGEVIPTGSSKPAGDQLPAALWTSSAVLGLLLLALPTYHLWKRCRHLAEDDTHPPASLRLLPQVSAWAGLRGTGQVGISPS

[3] = molecular target: T3, mouse MAdCAM expressed on cells (mouse, UniProt Q61826 22-405); experiment: cell binding
T3 construct: whole, on cells
T3 sequence (looked up): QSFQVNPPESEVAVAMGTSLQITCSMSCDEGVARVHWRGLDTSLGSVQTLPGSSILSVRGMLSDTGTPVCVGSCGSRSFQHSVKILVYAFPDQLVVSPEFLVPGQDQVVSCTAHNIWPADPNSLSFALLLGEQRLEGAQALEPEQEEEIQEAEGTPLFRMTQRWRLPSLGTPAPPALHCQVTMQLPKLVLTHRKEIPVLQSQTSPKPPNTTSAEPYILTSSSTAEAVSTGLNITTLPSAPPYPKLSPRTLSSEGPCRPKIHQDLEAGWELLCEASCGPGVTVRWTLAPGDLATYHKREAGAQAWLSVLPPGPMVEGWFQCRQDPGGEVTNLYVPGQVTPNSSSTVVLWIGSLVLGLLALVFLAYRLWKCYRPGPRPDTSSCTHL

human MAdCAM protein = molecular target: T4, human MAdCAM protein (human, UniProt Q13477 19-317, limits assumed); experiment: Octet
T4 construct: also called soluble monomeric human MAdCAM; recombinant human MAdCAM
T4 sequence (looked up): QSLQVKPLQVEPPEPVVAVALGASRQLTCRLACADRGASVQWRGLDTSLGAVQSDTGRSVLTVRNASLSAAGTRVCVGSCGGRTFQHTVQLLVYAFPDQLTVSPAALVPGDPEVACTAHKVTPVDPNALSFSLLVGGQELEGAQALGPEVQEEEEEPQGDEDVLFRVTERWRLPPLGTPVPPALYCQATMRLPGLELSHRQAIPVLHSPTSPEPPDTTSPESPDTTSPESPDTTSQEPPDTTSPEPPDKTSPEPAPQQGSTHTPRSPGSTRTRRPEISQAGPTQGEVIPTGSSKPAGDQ

Row | Binder | binding result [1] | binding result [2] | binding result [3] | binding result (human MAdCAM protein)
1 | MAdCAM Antibody Table 2 clone 7 (antibody, V domains shown, IgG format) VH: EVQLLESGGGLVQPGGSLRLSCAASGFTFSDYQMSWVRQAPGKGLEWVAIISHADGGFKDYADSVKGRFTISRDNSKNTLYLQMNSLRAEDTAVYYCAKPYSSGWSAVYYFDYWGQGTLVTVSS VL: DIQMTQSPSSLSASVGDRVTITCRASRGITNDLGWYQQKPGKAPKLLIYAASTLQSGVPSRFSGSGSGTDFTLTISSLQPEDFATYYCQQAYSFPWTFGQGTKVEIK | binds | binds | binds | –
2 | MAdCAM Antibody Table 2 clone 14 (antibody, V domains shown, IgG format) VH: QVQLVQSGAEVKKPGSSVKVSCKASGYTFTNYYMHWVRQAPGQGLEWMGGIIPIVDGVKYAQKFQGRVTITADESTSTAYMELSSLRSEDTAVYYCAKGQFTGNYYYGMDYWGQGTLVTVSS VL: DIQMTQSPSSLSASVGDRVTITCQANQDISNYLNWYQQKPGKAPKLLIYRASKLEAGVPSRFSGSGSGTDFTLTISSLQPEDFATYYCQQSSEIPYSFGQGTKVEIK | no binding | – | no binding | –
3 | MAdCAM Antibody Table 2 clone 28 (antibody, V domains shown, IgG format) VH: EVQLLESGGGLVQPGGSLRLSCAASGFTFSSYAMSWVRQAPGKGLEWVSYISSSSTYTNYADSVKGRFTISRDNSKNTLYLQMNSLRAEDTAVYYCARANSSSWYDWYFDLWGQGTLVTVSS VL: not shown | no binding | – | no binding | –
4 | MAdCAM Antibody Table 2 clone 29 (antibody, V domains shown, IgG format) VH: EVQLLESGGGLVQPGGSLRLSCAASGFTFSSYQMSWVRQAPGKGLEWVSYISSSSTYTNYADSVKGRFTISRDNSKNTLYLQMNSLRAEDTAVYYCARANSSSWYDWYFDLWGQGTLVTVSS VL: not shown | no binding | – | no binding | –
5 | MAdCAM Antibody Table 2 clone 30 (antibody, V domains shown, IgG format) VH: EVQLLESGGGLVQPGGSLRLSCAASGFTFSSYAMHWVRQAPGKGLEWVSGISGSGGSAYYADSVKGRFTISRDNSKNTLYLQMNSLRAEDTAVYYCATSQAPVDYYYYGMDVWGQGTTVTVSS VL: DIQMTQSPSSLSASVGDRVTITCRASQSISSWLAWYQQKPGKAPKLLIYAASNLQRGVPSRFSGSGSGTDFTLTISSLQPEDFATYYCQQSYSIPITFGQGTKVEIK | – | binds | binds | binds
6 | MAdCAM Antibody Table 2 clone 36 (antibody, V domains shown, IgG format) VH: EVQLLESGGGLVQPGGSLRLSCAASGFTFDDYALHWVRQAPGKGLEWVSAISGDGRSTTYADSVKGRFTISRDNSKNTLYLQMNSLRAEDTAVYYCARDGTVNGATGWFDPWGQGTLVTVSS VL: not shown | – | binds | binds | binds
7 | MAdCAM Antibody Table 2 clone 55 (antibody, V domains shown, IgG format) VH: EVQLLESGGGLVQPGGSLRLSCAASGFTFDDFAMHWVRQAPGKGLEWVSGISGNGDSRYYADSVKGRFTISRDNSKNTLYLQMNSLRAEDTAVYYCARDASYGGNYGMDVWGQGTTVTVSS VL: DIQMTQSPSSLSASVGDRVTITCQASQDIRNYLNWYQQKPGKAPKLLIYKASTLESGVPSRFSGSGSGTDFTLTISSLQPEDFATYYCQQANSFPLTFGPGTKVDIK | – | binds | no binding | binds
8 | MAdCAM Antibody Table 2 clone 58 (antibody, V domains shown, IgG format) VH: EVQLLESGGGLVQPGGSLRLSCAASGFSVSSNYMSWVRQAPGKGLEWVAGISYDGSSKPYADSVKGRFTISRDNSKNTLYLQMNSLRAEDTAVYYCARSRGIAARPLQHWGQGTLVTVSS VL: not shown | – | binds | no binding | binds
9 | MAdCAM Antibody Table 2 clone 60 (antibody, V domains shown, IgG format) VH: EVQLLESGGGLVQPGGSLRLSCAASGFTFSDHGMHWVRQAPGKGLEWVSVIYGGESTYYADSVKGRFTISRDNSKNTLYLQMNSLRAEDTAVYYCARDPAVAGGGIFDYWGQGTLVTVSS VL: DIQMTQSPSSLSASVGDRVTITCRASQGISNYLAWYQQKPGKAPKLLIYDASNLETGVPSRFSGSGSGTDFTLTISSLQPEDFATYYCQQSYSTCYTFGQGTKLEIK | – | binds | binds | binds
10 | MAdCAM Antibody Table 2 clone 63 (antibody, V domains shown, IgG format) VH: EVQLLESGGGLVQPGGSLRLSCAASGFTFNNYGMNWVRQAPGKGLEWVSRINSDGSSTSYADSVKGRFTISRDNSKNTLYLQMNSLRAEDTAVYYCARGAYYYYYMDVWGQGTLVTVSS VL: EIVMTQSPATLSVSPGERATLSCRASQSVSGSYLAWYQQKPGQAPRLLIYATSSRASGIPARFSGSGSGTEFTLTISSLQSEDFAVYYCQQYYSGLTFGQGTKVEIK | – | binds | no binding | binds
11 | MAdCAM Antibody Table 2 clone 76 (antibody, V domains shown, IgG format) VH: EVQLLESGGGLVQPGGSLRLSCAASGFTFDDYTMHWVRQAPGKGLEWVSDISGSGGSTYYADSVKGRFTISRDNSKNTLYLQMNSLRAEDTAVYYCAKDVVVAGTPLHFDYWGQGTLVTVSS VL: DIQMTQSPSSLSASVGDRVTITCQASQDISNYLNWYQQKPGKAPKLLIYAASYLQSGVPSRFSGSGSGTDFTLTISSLQPEDFATYYCQQAHNYPITFGQGTRLEIK | – | binds | binds | binds
12 | MAdCAM Antibody Table 2 clone 78 (antibody, V domains shown, IgG format) VH: QVQLVQSGAEVKKPGSSVKVSCKASGGTFSSYAISWVRQAPGQGLEWMGWMEPHTGNTRYAQKFQGRVTITADESTSTAYMELSSLRSEDTAVYYCAKGGFSWFDPWGQGTLVTVSS VL: not shown | – | binds | binds | binds
13 | MAdCAM Antibody Table 2 clone 82 (antibody, V domains shown, IgG format) VH: QVQLVQSGAEVKKPGASVKVSCKASGYTFTRHWIHWVRQAPGQGLEWMGWINVKTGGAGYAQKFQGRVTMTRDTSTSTVYMELSSLRSEDTAVYYCARESSGWYGTDVWGQGTTVTVSS VL: DIQMTQSPSSLSASVGDRATITCRASQSISNYLAWYQQKPGKAPKLLIYAASSLQSGVPSRFSGSGSGTDFTLTISSLQPEDFATYYCQQSNSFPLTFGGGTKVEIK | – | binds | binds | binds
14 | MAdCAM Antibody Table 2 clone 83 (antibody, V domains shown, IgG format) VH: EVQLLESGGGLVQPGGSLRLSCAASGFTFSSYWMHWVRQAPGKGLEWVAAISYDGKYKDYEDSVKGRFTISRDNSKNTLYLQMNSLRAEDTAVYYCARENKQWLASFDYWGQGTLVTVSS VL: DIQMTQSPSSLSASVGDRVTITCQASQDISNFVNWYQQKPGKAPKLLIYAANLRSGVPSRFSGSGSGTDFTLTISSLQPEDFATYYCQQANSFPVTFGPGTKVDIK | – | binds | binds | binds
15 | MAdCAM Antibody Table 2 clone 84 (antibody, V domains shown, IgG format) VH: QVQLVQSGAEVKKPGASVKVSCKASGGTFSSSAISWVRQAPGQGLEWMGWISAYNGYTNYAQKFQGRVTMTRDTSTSTVYMELSSLRSEDTAVYYCASRVHSGGSYPDDYWGQGTLVTVSS VL: DIQMTQSPSSLSASVGDRVTITCQASEHIYNYLNWYQQKPGKAPKLLIYAASSLQSGVPSRFSGSGSGTDFTLTISSLQPEDFATYYCQQTDSIPITFGQGTKVEIK | – | binds | binds | binds
16 | MAdCAM Antibody Table 2 clone 6 (antibody, V domains shown, IgG format) VH: EVQLLESGGGLVQPGGSLRLSCAASGFTFNNYAFHWVRQAPGKGLEWVSRINSYGTSTTYADSVKGRFTISRDNSKNTLYLQMNSLRAEDTAVYYCAREGPVAGYWYFDLWGQGTLVTVSS VL: DIQMTQSPSSLSASVGDRVTITCRASQIIGTNLAWYQQKPGKAPKLLIYGASSLQSGVPSRFSGSGSGTDFTLTISSLQPEDFATYYCQQSYRLPFTFGQGTKVEIK | no binding | – | no binding | –
